In paper PMC6258952, “Visualization of Calcium Ion Loss from Rotavirus during Cell Entry” (Journal of Virology, 2018):

Columns and labels:
[1] = molecular target: VP5 CT fragment from sequential chymotrypsin-trypsin digestion of VP4 Rhod5F (rhesus rotavirus (RRV)); test: SDS-PAGE of unboiled and boiled samples; VP4 469C-Rhod5F digested with chymotrypsin (37°C, 30 min) then trypsin (room temperature, 1 h); reducing sample buffer (200 mM DTT), boiled at 95°C for 3 min or kept at room temperature for 3 min; 5-to-20% gradient gel, UV light and Coomassie blue
[2] = molecular target: T1, wild-type recombinant VP4 labeled with pHrodo Red succinimidyl ester (rhesus rotavirus (RRV), UniProt P12473 1-776, pHrodo Red succinimidyl ester, 1 dye molecule per 2 VP4 monomers (residues not stated)); test: co-sedimentation; recoating of labeled DLP: 100 mM sodium acetate pH 5.2, VP4 at 0.9 mg/ml (~33-fold excess) 1 h at room temperature, then VP7 in 2.3-fold excess with 1 mM CaCl2 for 1 h; recoated particles separated from excess components by cesium chloride gradient centrifugation; dyes seen on single particles by confocal imaging; settings: both partners purified
T1 construct: VP4, outer layer spike protein of rhesus rotavirus (RRV), wild type; also called VP4-pHrodo Red; wt VP4; source: Sf9 cells infected with a baculovirus vector, purified (ammonium sulfate, Phenyl HP, HiTrap Q, S200)

[3] = molecular target: T2, wild-type recombinant VP4 labeled with Atto 565 NHS ester (rhesus rotavirus (RRV), UniProt P12473 1-776, Atto 565 NHS ester, about 1 dye molecule per VP4 monomer (residues not stated)); test: as above; settings: both partners purified
T2 construct: VP4, outer layer spike protein of rhesus rotavirus (RRV), wild type; also called VP4-565; rVP4; source: Sf9 cells infected with a baculovirus vector, purified (ammonium sulfate, Phenyl HP, HiTrap Q, S200)

[4] = molecular target: T3, VP4 mutated at position 469 from serine to cysteine (rhesus rotavirus (RRV), UniProt P12473 1-776, S469C); test: as above; settings: both partners purified
T3 construct: VP4, outer layer spike protein of rhesus rotavirus (RRV), with S469C; Unlabeled during recoating; It was labeled on the purified rcTLP afterwards with DBCO-maleimide and Rhod5F azide; also called VP4 469C; S469C; source: Sf9 cells infected with a baculovirus vector, purified (ammonium sulfate, Phenyl HP, HiTrap Q, S200)

Molecule | stoichiometry N [1] | binding result [2] | binding result [3] | binding result [4]
VP5 CT fragment from sequential chymotrypsin-trypsin digestion of VP4 Rhod5F (domain or fragment) | 3 |  |  | 
Atto 488 NHS ester-labeled VP7 (natural protein, Atto 488 NHS ester (residues not stated), VP7, Ca2+-stabilized outer layer protein of rhesus rotavirus (RRV); also called VP7-488) QNYGINLPITGSMDTAYANSTQEETFLTSTLCLYYPTEAATEINDNSWKDTLSQLFLTKGWPTGSVYFKEYTDIASFSVDPQLYCDYNVVLMKYDATLQLDMSELADLILNEWLCNPMDITLYYYQQTDEANKWISMGSSCTIKVCPLNTQTLGIGCLTTDTATFEEVATAEKLVITDVVDGVNHKLDVTTATCTIRNCKKLGPRENVAVIQVGGSDVLDITADPTTAPQTERMMRINWKKWWQVFYTVVDYVNQIIQAMSKRSRSLNSAAFYYRI |  | binds | binds | binds
